Legend:
[1] = target: T1, human fibroblast activation protein (huFAP) expressed on cells (human, UniProt Q12884 1-760); test: flow cytometry competition on huFAP-transfected HEK cells; unlabelled antibody titrated 0.2-60 µg/ml, then AF647-labelled 4B9 (20 µg/ml) as competitor
T1 construct: UniProt Q12884 printed; also called human FAP; hFAP
Description: Briefly, the target cells were harvested with Cell Dissociation buffer, washed with FACS Buffer (PBS+2% FCS+5 mM EDTA+0.25% sodium acide) and seeded into 96-U bottom plates (1×10^5 cells/well).

[2] = target: T2, biotinylated recombinant human FAP (human, UniProt Q12884 27-760, biotinylated (site not stated)); test: SPR (Biacore), Fab
T2 construct: also called biotinylated human FAP; recombinant huFAP

[3] = target: T2, biotinylated recombinant human FAP; test: SPR (Biacore), biotinylated huFAP immobilized, Fab analyte
Description: As running and dilution buffer, HBS-P+ (10 mM HEPES, 150 mM NaCl pH 7.4, 0.05% Surfactant P20) was used. A dilution series of anti-huFAP Fabs (3.7-300 nM, 1:3 dilution) was successively injected for 120s each, dissociation was monitored for 1800s at a flow rate of 30 μl/min (single cycle kinetics). The surface was regenerated by injecting 6 M guanidine-HCl, 0.25 M NaOH for 120 s. […] Curve fitting was performed using the 1:1 Langmuir binding model within the Biacore evaluation software.

[4] = target: T1, human fibroblast activation protein …; test: flow cytometry, NIH/3T3-huFAP cells
Description: (§1) Plates were centrifuged 5 minutes at 1700 rpm and supernatants were flicked off. […] Afterwards the cells were washed three times with 200 μL 4° C. cold FACS buffer. […] Data analysis was performed using the FlowJo version 10 software (FlowJo LLC).

[5] = target: T3, human CD40 expressed on cells (human, UniProt P25942 21-277); test: flow cytometry, primary human B cells
T3 construct: Endogenous CD40 on Raji, Daudi and primary human B cells; human CD40 on DCs of huCD40tg mice; also called huCD40; Raji cells
Description: as §1

B1: anti-FAP antibody 28H1 (antibody, V domains shown)
VH: EVQLLESGGGLVQPGGSLRLSCAASGFTFSSHAMSWVRQAPGKGLEWVSAIWASGEQYYADSVKGRFTISRDNSKNTLYLQMNSLRAEDTAVYYCAKGWLGNFDYWGQGTLVTVSS
VL: EIVLTQSPGTLSLSPGERATLSCRASQSVSRSYLAWYQQKPGQAPRLLIIGASTRATGIPDRFSGSGSGTDFTLTISRLEPEDFAVYYCQQGQVIPPTFGQGTKVEIK
notes: also called FAP clone 28H1; FAP (28H1)
B1: binds [1].

B2: 4B9_Fab (Fab, V domains shown)
VH: EVQLLESGGGLVQPGGSLRLSCAASGFTFSSYAMSWVRQAPGKGLEWVSAIIGSGASTYYADSVKGRFTISRDNSKNTLYLQMNSLRAEDTAVYYCAKGWFGGFNYWGQGTLVTVSS
VL: EIVLTQSPGTLSLSPGERATLSCRASQSVTSSYLAWYQQKPGQAPRLLINVGSRRATGIPDRFSGSGSGTDFTLTISRLEPEDFAVYYCQQGIMLPPTFGQGTKVEIK
notes: Fab
In the case of B2, the Kd [2] is reported as 0.279 nM, the “T ½” value [2] is reported as 55 min and the koff [2] is reported as 0.000208 s⁻¹. For the same binder, the kon [2] was 747000 M⁻¹ s⁻¹, the Kd [3] was 0.43 nM and the koff [3] was 0.00078 s⁻¹. The kon [3] was 1.82e+06 M⁻¹ s⁻¹.

B3: P1AE1702_Fab (humanized clone 212, VH2G2a/VL2G2a) (Fab, V domains shown)
VH: EVQLLESGGGLVQPGGSLRLSCAASGYTLTDYNMDWVRQAPGKGLEWVGDIYPNTGGTIYNQKFKGRFTISIDKSKNTAYLQMNSLRAEDTAVYYCTRFRGIHYAMDYWGQGTTVTVSS
VL: DIQMTQSPSSLSASVGDRVTITCRASESVDNYGLSFINWFQQKPGQPPKLLIYGTSNRGSGVPSRFSGSGSGTDFTLTISSLQPEDFAMYFCQQSNEVPYTFGGGTKVEIK
notes: Fab
For B3, the “T ½” value [2] was 108 min.

B4: P1AE1690_Fab (humanized clone 212, VH1G2a/VL1G1a) (Fab, V domains shown)
VH: QVQLVQSGAEVKKPGASVKVSCKASGYTLTDYNMDWVRQAPGKSLEWIGDIYPNTGGTIYNQKFKGRVTMTIDKSTSTVYMELSSLRSEDTAVYYCTRFRGIHYAMDYWGQGTTVTVSS
VL: EIVLTQSPATLSLSPGERATLSCRASESVDNYGLSFINWFQQKPGQAPRLLIYGTSNRGSGIPARFSGSGSGTDFTLTISSLEPEDFAVYFCQQSNEVPYTFGGGTKVEIK
notes: Fab
With B4 the “T ½” value [2] was 183 min.

B5: P1AE1689_Fab (humanized clone 212, VH1G1a/VL1G1a) (Fab, V domains shown)
VH: QVQLVQSGAEVKKPGASVKVSCKASGYTLTDYNMDWVRQAPGQGLEWIGDIYPNTGGTIYNQKFKGRVTMTIDTSTSTVYMELSSLRSEDTAVYYCTRFRGIHYAMDYWGQGTTVTVSS
VL: EIVLTQSPATLSLSPGERATLSCRASESVDNYGLSFINWFQQKPGQAPRLLIYGTSNRGSGIPARFSGSGSGTDFTLTISSLEPEDFAVYFCQQSNEVPYTFGGGTKVEIK
notes: Fab
With B5 the “T ½” value [2] was 274 min.

B6: P1AE1693_Fab (humanized clone 212, VH1G2a/VL1G2a) (Fab, V domains shown)
VH: QVQLVQSGAEVKKPGASVKVSCKASGYTLTDYNMDWVRQAPGKSLEWIGDIYPNTGGTIYNQKFKGRVTMTIDKSTSTVYMELSSLRSEDTAVYYCTRFRGIHYAMDYWGQGTTVTVSS
VL: EIVLTQSPATLSLSPGERATLSCRASESVDNYGLSFINWFQQKPGQPPRLLIYGTSNRGSGIPARFSGSGSGTDFTLTISSLEPEDFAVYFCQQSNEVPYTFGGGTKVEIK
notes: Fab
With B6 the “T ½” value [2] was 161 min.

B7: P1AE2487, CD40 (P1AE0817) x FAP (4B9) (2+1) C-terminal crossfab fusion (bispecific antibody)
chain 1: EIVLTQSPGTLSLSPGERATLSCRASQSVTSSYLAWYQQKPGQAPRLLINVGSRRATGIPDRFSGSGSGTDFTLTISRLEPEDFAVYYCQQGIMLPPTFGQGTKVEIKSSASTKGPSVFPLAPSSKSTSGGTAALGCLVKDYFPEPVTVSWNSGALTSGVHTFPAVLQSSGLYSLSSVVTVPSSSLGTQTYICNVNHKPSNTKVDKKVEPKSC
chain 2: DIVMTQTPLSLSVTPGQPASISCRSSQSLVHSNGNTFLHWYLQKPGQSPQLLIYTVSNRFSGVPDRFSGSGSGTDFTLKISRVEAEDVGVYFCSQTTHVPWTFGGGTKVEIKRTVAAPSVFIFPPSDEQLKSGTASVVCLLNNFYPREAKVQWKVDNALQSGNSQESVTEQDSKDSTYSLSSTLTLSKADYEKHKVYACEVTHQGLSSPVTKSFNRGEC
chain 3: not shown
chain 4: QVQLVQSGAEVKKPGASVKVSCKASGYSFTGYYIHWVRQAPGQSLEWMGRVIPNAGGTSYNQKFKGRVTLTVDKSISTAYMELSRLRSDDTAVYYCAREGIYWWGQGTTVTVSSASTKGPSVFPLAPSSKSTSGGTAALGCLVKDYFPEPVTVSWNSGALTSGVHTFPAVLQSSGLYSLSSVVTVPSSSLGTQTYICNVNHKPSNTKVDKKVEPKSCDKTHTCPPCPAPEAAGGPSVFLFPPKPKDTLMISRTPEVTCVVVDVSHEDPEVKFNWYVDGVEVHNAKTKPREEQYNSTYRVVSVLTVLHQDWLNGKEYKCKVSNKALGAPIEKTISKAKGQPREPQVCTLPPSRDELTKNQVSLSCAVKGFYPSDIAVEWESNGQPENNYKTTPPVLDSDGSFFLVSKLTVDKSRWQQGNVFSCSVMHEALHNHYTQKSLSLSPG
B7 gave an EC50 [4] of 3.7 nM.

B8: P1AE3378, CD40 (P1AE0817) x FAP (4B9) (3+1) with C-terminal crossfab fusion (bispecific antibody)
chain 1: EIVLTQSPGTLSLSPGERATLSCRASQSVTSSYLAWYQQKPGQAPRLLINVGSRRATGIPDRFSGSGSGTDFTLTISRLEPEDFAVYYCQQGIMLPPTFGQGTKVEIKSSASTKGPSVFPLAPSSKSTSGGTAALGCLVKDYFPEPVTVSWNSGALTSGVHTFPAVLQSSGLYSLSSVVTVPSSSLGTQTYICNVNHKPSNTKVDKKVEPKSC
chain 2: DIVMTQTPLSLSVTPGQPASISCRSSQSLVHSNGNTFLHWYLQKPGQSPQLLIYTVSNRFSGVPDRFSGSGSGTDFTLKISRVEAEDVGVYFCSQTTHVPWTFGGGTKVEIKRTVAAPSVFIFPPSDEQLKSGTASVVCLLNNFYPREAKVQWKVDNALQSGNSQESVTEQDSKDSTYSLSSTLTLSKADYEKHKVYACEVTHQGLSSPVTKSFNRGEC
chain 3: not shown
chain 4: QVQLVQSGAEVKKPGASVKVSCKASGYSFTGYYIHWVRQAPGQSLEWMGRVIPNAGGTSYNQKFKGRVTLTVDKSISTAYMELSRLRSDDTAVYYCAREGIYWWGQGTTVTVSSASTKGPSVFPLAPSSKSTSGGTAALGCLVKDYFPEPVTVSWNSGALTSGVHTFPAVLQSSGLYSLSSVVTVPSSSLGTQTYICNVNHKPSNTKVDKKVEPKSCDGGGGSGGGGSQVQLVQSGAEVKKPGASVKVSCKASGYSFTGYYIHWVRQAPGQSLEWMGRVIPNAGGTSYNQKFKGRVTLTVDKSISTAYMELSRLRSDDTAVYYCAREGIYWWGQGTTVTVSSASTKGPSVFPLAPSSKSTSGGTAALGCLVKDYFPEPVTVSWNSGALTSGVHTFPAVLQSSGLYSLSSVVTVPSSSLGTQTYICNVNHKPSNTKVDKKVEPKSCDKTHTCPPCPAPEAAGGPSVFLFPPKPKDTLMISRTPEVTCVVVDVSHEDPEVKFNWYVDGVEVHNAKTKPREEQYNSTYRVVSVLTVLHQDWLNGKEYKCKVSNKALGAPIEKTISKAKGQPREPQVCTLPPSRDELTKNQVSLSCAVKGFYPSDIAVEWESNGQPENNYKTTPPVLDSDGSFFLVSKLTVDKSRWQQGNVFSCSVMHEALHNHYTQKSLSLSPG
In the case of B8, the EC50 [4] is reported as 5.53 nM and the EC50 [5] is reported as 0.085 nM.

B9: P1AE3377, CD40 (P1AE0817) x FAP (P1AE1689) (3+1) C-terminal crossfab fusion (bispecific antibody, human IgG1, kappa, L234A L235A)
light 1: QVQLVQSGAEVKKPGASVKVSCKASGYTLTDYNMDWVRQAPGQGLEWIGDIYPNTGGTIYNQKFKGRVTMTIDTSTSTVYMELSSLRSEDTAVYYCTRFRGIHYAMDYWGQGTTVTVSSASVAAPSVFIFPPSDEQLKSGTASVVCLLNNFYPREAKVQWKVDNALQSGNSQESVTEQDSKDSTYSLSSTLTLSKADYEKHKVYACEVTHQGLSSPVTKSFNRGEC
light 2: DIVMTQTPLSLSVTPGQPASISCRSSQSLVHSNGNTFLHWYLQKPGQSPQLLIYTVSNRFSGVPDRFSGSGSGTDFTLKISRVEAEDVGVYFCSQTTHVPWTFGGGTKVEIKRTVAAPSVFIFPPSDRKLKSGTASVVCLLNNFYPREAKVQWKVDNALQSGNSQESVTEQDSKDSTYSLSSTLTLSKADYEKHKVYACEVTHQGLSSPVTKSFNRGEC
heavy 1: not shown
heavy 2: QVQLVQSGAEVKKPGASVKVSCKASGYSFTGYYIHWVRQAPGQSLEWMGRVIPNAGGTSYNQKFKGRVTLTVDKSISTAYMELSRLRSDDTAVYYCAREGIYWWGQGTTVTVSSASTKGPSVFPLAPSSKSTSGGTAALGCLVEDYFPEPVTVSWNSGALTSGVHTFPAVLQSSGLYSLSSVVTVPSSSLGTQTYICNVNHKPSNTKVDEKVEPKSCDGGGGSGGGGSQVQLVQSGAEVKKPGASVKVSCKASGYSFTGYYIHWVRQAPGQSLEWMGRVIPNAGGTSYNQKFKGRVTLTVDKSISTAYMELSRLRSDDTAVYYCAREGIYWWGQGTTVTVSSASTKGPSVFPLAPSSKSTSGGTAALGCLVEDYFPEPVTVSWNSGALTSGVHTFPAVLQSSGLYSLSSVVTVPSSSLGTQTYICNVNHKPSNTKVDEKVEPKSCDKTHTCPPCPAPEAAGGPSVFLFPPKPKDTLMISRTPEVTCVVVDVSHEDPEVKFNWYVDGVEVHNAKTKPREEQYNSTYRVVSVLTVLHQDWLNGKEYKCKVSNKALGAPIEKTISKAKGQPREPQVCTLPPSRDELTKNQVSLSCAVKGFYPSDIAVEWESNGQPENNYKTTPPVLDSDGSFFLVSKLTVDKSRWQQGNVFSCSVMHEALHNHYTQKSLSLSPG
notes: Trivalent for CD40, monovalent for FAP; knob-into-hole, P329G LALA Fc; also called CD40 x FAP (212) 3+1 crossfab
For B9, the EC50 [4] was 4.94 nM and the EC50 [5] was 0.038 nM.

Reference: patent US20210292426A1 (Hoffmann-La Roche, published 2021)
